Measured values taken from patent US12514920B1, “Respiratory syncytial virus mRNA vaccine, and preparation method therefor and use thereof” (Hangzhou Tianlong Pharmaceutical Co., Ltd., priority 2024, dated 2026).
Changes are numbered by the printed parent chain.

B1: YK-RSV-016 (protein)
chain: QNITEEFYCSTCSAVSKGYLGALRTGWYTSVILIELSNIKENKCNGTDAKVKLIKQELDKYKNAVTDLQLLMQSTPATGSGSAICSGVAVSKVLHLEGEVNKIKSALLSTNKAVVSLSNGVSVLTFKVLDLKNYIDKQLLPIVNKQSCSIPNIETVIEFQQKNNRLLEITREFSVNAGVTTPVSTYMLTNSELLSLINDMPITNDQKKLMSNNVQIVRQQSYSIMSIIKEEVLAYVVQLPLYGVIDTPCWKLHTSPLCTTNTKEGSNICLTRTDRGWYCDNAGSVSFFPQAETCKVQSNRVFCDTMNSRTLPSEVNLCNVDIFNPKYDCKIMTSKTDVSSSVITSLGAIVSCYGKTKCTASNKNRGIIKTFSNGCDYVSNKGVDTVSVGNTLYCVNKQEGQSLYVKCEPIINFYDPLVFPSSEFDASISQVNEKINQSLAFIRKSDELLHNVNAGKSTTNIMITTIIIVIIVILLSLIAVGLLLY
B2: YK-RSV-045 (protein)
chain: B1 chain with C9Q, L33T, T75C, C85A, V143L, V236C, C394Y, C407G, S422D
B3: YK-RSV-032 (protein)
chain: B1 chain with L33T, C85A, V143L, C394Y, K406C, C407G, S422D
B4: YK-RSV-035 (protein)
chain: B1 chain with N2C, C9Q, L33T, C85A, V143L, C394Y, Q398C, C407G, S422D
B5: YK-RSV-019 (protein)
chain: B1 chain with C9Q, S30C, L33T, L124C, T155I, C407G
B6: YK-RSV-040 (protein)
chain: B1 chain with C9Q, T29C, L33T, C85A, A89C, V143L, C394Y, C407G, S422D
B7: YK-RSV-034 (protein)
chain: B1 chain with Q1C, C9Q, L33T, C85A, V143L, C394Y, K397C, C407G, S422D
B8: YK-RSV-029 (protein)
chain: B1 chain with T4C, C9Q, L33T, C85A, V143L, C394Y, Q401C, C407G, S422D
B9: YK-RSV-037 (protein)
chain: B1 chain with C9Q, Y28C, L33T, C85A, A89C, V143L, C394Y, C407G, S422D

test system: RSV F antibody (11A9); test: Binding of epitope II of RSV F antigen mutants by flow cytometry; details: epitope II, antibody 11A9
Source text: (§1) To investigate whether the RSV F antigen mutants have pre-fusion epitopes, an RSV pre-F antibody (3C12) (specifically binding to the RSV pre-F epitope […]) and an RSV F antibody (11A9) (binding to pre-F and post-F epitopes II) were detected by flow cytometry in this example, and RSV F protein mutants in the pre-F conformation were expected to bind to the antibodies tested.
(§2) • 293T cells (purchased from ATCC cell bank); RSV pre-F antibody (3C12), epitope […] (Novoprotein, Cat. No.: DA101); RSV F antibody (11A9), epitope II (Novoprotein, Cat. No.: DA091); • experimental groups: mRNA vaccines corresponding to the expressed antigens in Example 3;
(§3) • (1) Cell transfection: 293T cells were seeded at 1.3×10^5 cells/well in a 24-well plate. The next day, mRNA-LNP samples (containing 300 ng of mRNA) were added directly to the cells, and the mixture was uniformly mixed. • (2) Cell collection: The cells were taken out of the incubator after 16 h of transfection, the medium was pipetted off, 500 μL of 0.1% BSA solution was pipetted to wash the medium remaining in the well plate, taking care not to resuspend the cells, and the 0.1% BSA solution was pipetted off. 500 μL of 0.1% BSA solution was added to each well, and the cells were pipetted and transferred to a 1.5 mL centrifuge tube. • (3) Centrifugation: The cells were harvested by centrifugation at 400 g for 5 min at 4° C. in the dark, and the supernatant was discarded. • (4) Straining: 50.6 μL of RSV fluorescent antibody diluent was added to each of the control sample and the test samples to resuspend the cells, and the samples were incubated at 4° C. for 2 h in the dark. • (5) Cleaning: After the incubation was completed, 500 μL of 0.1% BSA solution was added to each tube, the cells were harvested by centrifugation at 400 g for 5 min at 4° C. in the dark, and the supernatant was discarded. This operation was repeated three times. • (6) Resuspension of cells: 200 μL of 0.1% BSA solution was added to each sample, and the cells were carefully pipetted to prepare a cell suspension. • (7) Detection on flow cytometer: The […] of RSV F mutants to antibodies were measured using flow cytometry, with 1×10^4 cells detected in each measurement.
(§4) The RSV pre-F antibody (3C12) used in this example specifically binds to the RSV pre-F epitope Φ, and the RSV F antibody (11A9) binds to the pre-F and post-F epitopes II. Whether the pre-fusion conformations of the RSV F mutants are stable can be further determined by detecting the binding of the epitope Φ and the epitope II on the mutants to corresponding epitopes of antibodies 3C12 and 11A9, respectively, by flow cytometry.

| Molecule | RSV F antibody (11A9) Epitope II (%) binding rate [%] |
| --- | --- |
| B1 | 83.4 |
| B2 | 86.0 |
| B3 | 94.8 |
| B4 | 87.1 |
| B5 | 90.4 |
| B6 | 92.0 |
| B7 | 91.0 |
| B8 | 86.7 |
| B9 | 86.9 |

test system: RSV pre-F antibody (3C12); test: Binding of epitope Φ of RSV F antigen mutants by flow cytometry; details: flow cytometry; epitope Φ, antibody 3C12
Source text: as §1, §2, §3, §4

| Molecule | RSV pre-F antibody (3C12) Epitope Φ (%) binding rate [%] |
| --- | --- |
| B1 | 79.8 |
| B2 | 78.3 |
| B3 | 86.1 |
| B4 | 79.6 |
| B5 | 84.5 |
| B6 | 84.3 |
| B7 | 82.5 |
| B8 | 79.6 |
| B9 | 79.0 |

same assay, conditions: ratio of epitope Φ (3C12) to epitope II (11A9) binding rate

| Molecule | Φ/II (%) |
| --- | --- |
| B1 | 95.7 |
| B2 | 91.0 |
| B3 | 90.8 |
| B4 | 91.4 |
| B5 | 93.5 |
| B6 | 91.6 |
| B7 | 90.7 |
| B8 | 91.8 |
| B9 | 90.9 |

test system: RSV pre-F antibody (3C12); test: not given; format: physicochemical; details: high osmotic pressure 3000 mM, room temperature, 60 min; ELISA binding to 3C12
Source text: To investigate the stability of the RSV F antigen mutants under different pH, temperature, osmotic pressure and other conditions, the mutants were subjected to stress tests under different treatment conditions in this example.
• 293T cells (purchased from ATCC cell bank); • Primary antibody: RSV pre-F antibody (3C12), epitope Φ (purchased from Suzhou Novoprotein Scientific Co., Ltd. (hereinafter referred to as Novoprotein), Cat. No.: DA101); • Standard: RSV pre-F trimer protein (Novoprotein, Cat. No.: DRA230); • Secondary antibody: peroxidase AffiniPure goat anti-human IgG (H+L) (purchased from Yeasen Biotechnology (Shanghai) Co., Ltd. (hereinafter referred to as Yeasen), Cat. No.: N/A); • Experimental group: mRNA vaccines after screening in Example 4;
Coating: A 96-well microplate was coated with a working solution and incubated at 2 to 8° C. for 16 to 20 h.
Plate washing: Phosphate buffered saline PBST was added to each well, and the plate was washed 5 times using a plate washer and patted dry on absorbent paper.
Blocking: After a blocking solution was added, the […] were placed on a constant temperature microplate shaker and incubated at 400 rpm for 1.5 h at 37° C.
Plate washing: PBST was added to each well, and the plate was washed 5 times using a plate washer and patted dry on absorbent paper.
Primary antibody incubation: A primary antibody dilution was added to each well, and the plate was sealed with a sealing film, and then incubated at 400 rpm for 1.5 h at 37° C.
Secondary antibody incubation: A secondary antibody dilution was added to each well, and the plate was sealed with a sealing film, and then incubated at 400 rpm for 45 min at 37° C.
Color development: A chromogenic solution was added, and the plate was sealed with a sealing film, and then placed on a constant temperature microplate shaker and incubated at 400 rpm for 25 min at 37° C.
Reaction stopping: After the color development was completed, a stop buffer was added at […] to the microplate to stop the reaction.
Plate reading: Absorbance values (OD values) were read within 5 min using a multimode microplate reader, with dual wavelengths of 450 nm and 630 nm set.
In this example, stability screening of the mutants through different treatment conditions was defined as a stress test, including storage at 4° C. for one week; incubation at 50° C. for 60 min; treatment at room temperature under low osmotic pressure and high osmotic pressure conditions for 60 min; treatment at room temperature under acid and base conditions for 60 min. The binding of the mutants to the RSV pre-F antibody (3C12) recognizing the epitope Φ was detected by ELISA.

| Molecule | Stress resistance parameter, Osmotic pressure (mM) 3000 |
| --- | --- |
| B1 | 0.53 ± 0.07 |
| B2 | 0.46 ± 0.05 |
| B3 | 0.37 ± 0.02 |
| B4 | 0.21 ± 0.06 |
| B5 | 0.63 ± 0.04 |
| B6 | 0.61 ± 0.09 |
| B7 | 0.34 ± 0.15 |
| B8 | 0.40 ± 0.01 |
| B9 | 0.21 ± 0.03 |

same assay, conditions: incubation at 50° C. for 60 min; ELISA binding to 3C12

| Molecule | Stress resistance parameter, Temperature (° C.) 50 |
| --- | --- |
| B1 | 0.80 ± 0.01 |
| B2 | 0.41 ± 0.03 |
| B3 | 0.78 ± 0.02 |
| B4 | 0.39 ± 0.02 |
| B5 | 0.58 ± 0.05 |
| B6 | 0.91 ± 0.14 |
| B7 | 0.68 ± 0.07 |
| B8 | 0.57 ± 0.08 |
| B9 | 0.50 ± 0.06 |

same assay, conditions: low osmotic pressure 10 mM, room temperature, 60 min; ELISA binding to 3C12

| Molecule | Stress resistance parameter, Osmotic pressure (mM) 10 |
| --- | --- |
| B1 | 0.77 ± 0.08 |
| B2 | 0.57 ± 0.09 |
| B3 | 0.66 ± 0.14 |
| B4 | 0.39 ± 0.05 |
| B5 | 0.81 ± 0.04 |
| B6 | 0.75 ± 0.13 |
| B7 | 0.84 ± 0.14 |
| B8 | 0.61 ± 0.05 |
| B9 | 0.54 ± 0.11 |

same assay, conditions: pH 3.5, room temperature, 60 min; ELISA binding to 3C12

| Molecule | Stress resistance parameter, pH 3.5 |
| --- | --- |
| B1 | 0.91 ± 0.06 |
| B2 | 0.47 ± 0.09 |
| B3 | 1.01 ± 0.35 |
| B4 | 0.57 ± 0.03 |
| B5 | 0.77 ± 0.05 |
| B6 | 0.93 ± 0.09 |
| B7 | 0.81 ± 0.09 |
| B8 | 0.63 ± 0.03 |
| B9 | 0.68 ± 0.10 |

same assay, conditions: pH 10, room temperature, 60 min; ELISA binding to 3C12

| Molecule | Stress resistance parameter, pH 10 |
| --- | --- |
| B1 | 0.98 ± 0.14 |
| B2 | 0.97 ± 0.07 |
| B3 | 0.98 ± 0.06 |
| B4 | 0.82 ± 0.01 |
| B5 | 0.88 ± 0.09 |
| B6 | 1.00 ± 0.23 |
| B7 | 0.91 ± 0.04 |
| B8 | 0.82 ± 0.01 |
| B9 | 1.24 ± 0.11 |

same assay, conditions: storage at 4° C. for one week; ELISA binding to 3C12

| Molecule | Stress resistance parameter, Temperature (° C.) 4 |
| --- | --- |
| B1 | 0.28 ± 0.05 |
| B2 | 0.29 ± 0.02 |
| B3 | 0.34 ± 0.08 |
| B4 | 0.31 ± 0.07 |
| B5 | 0.37 ± 0.08 |
| B6 | 0.38 ± 0.08 |
| B7 | 0.37 ± 0.07 |
| B8 | 0.32 ± 0.06 |
| B9 | 0.27 ± 0.07 |
